Assay: yeast display, Sf9 membrane polyspecificity reagent, FACS + sequencing; frameworks hold sequencing errors
Procedure, shortened: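 In a synthetic yeast display library (Saccharomyces cerevisiae BJ5465), nanobody expression was induced with galactose for 36–48 hours. FACS gates were set low and high (top ~1%) using anti-HA fluorescence for expression and streptavidin fluorescence for binding of the Sf9 membrane reagent. Each polyreactivity label is drawn from the gate of origin.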

QVQLVESGGGLVQAGGSLRLSCAASGFTFYKNTMGWYRQAPGKERELVAAISGSGGRTYYADSVKGRFTISRDNAKNTVYLQMTSLKPEDTAVYYCNAAARYRWQYVYSLYEYGHWGQGTQVTVSS
polyreactivity (PSR sort gate): high polyreactivity

QVQVVESGGGLVQAGGSLRLSCAASGRTFRSYAMVWYRQAPGKERELVASISRGASTNYADSVNGRFTISRDNSKNTVYLQRNSLKPEDTAVYYCAAKYSWGYTYYYWGQGTQVTVSS
polyreactivity (PSR sort gate): high polyreactivity

QVQLVESGGGLVQAGGSLRLSCAASGITFIKNAMGWYRQAPGKERELVAAISRSGGRTYYADSVKGRFTISRDNAKNTVYLQMNSLKPEDTAVYYCAAVTQRSYFYDYWGQGTQVTVSS
polyreactivity (PSR sort gate): high polyreactivity

QVQLVESGGGLVQAGGSLRLSCAASGTTFSPNAMGWYRQAPGKERELVAAITGGGSTYADSVKGRFTISRDNAKNTVYLQMNSLKPEDTAVYYCNADSYSFPYYYWGQGTQVTVSS
polyreactivity (PSR sort gate): low polyreactivity

QVQLVESGGGLVQAGGSLRLSCSASGSIFRYYAMGWYRQPPGKEREFVASITYRGGRTYYADSVKGRFTISRDNAKKTVYLQMNSLKPEDTAVYYCAARTRAGAWTSKYHDYWGEGTQVTVSS
polyreactivity (PSR sort gate): high polyreactivity

QVQLVESGGGLVQAGGSLRLSCAASGIIFYGNAMGWYRPAPGKERELVAAISWTTDSTYADSVKGRFTISRDNAKNTVYLQMNSLKPEDTAVYYCNARNGSEFLANDLFTHEYDYWGQGTQVTVSS
polyreactivity (PSR sort gate): low polyreactivity

QVQLVESGGGLVQAGGSLRLSCAASGRTFVYNAMGWYSQAPGKEREMVAAISFGGGNTYYADSVKGRFTISRDNAKNTVYLQMNSLIPEDTAVYYCAKAYIGYWGASWYYAYDYWGQGTQVTVSS
polyreactivity (PSR sort gate): low polyreactivity

QVQLVESGGGLVQAGGSLRLSCAASGYTFRYNAMGWYRQAPGKERELVASITFSGGRTFYADSVKGRFTISRDNAKNTVYLQMNSLKPEDTAVYYCAAVRWGRRSGGLVAEYDYWGQGTQVTVSS
polyreactivity (PSR sort gate): high polyreactivity

QVQLVESRGGLVQAGGSLRLSCAACGLIFTRNAMGWYSAAPGKERELVAAISRSGGTTYYADSVKGRFTISRDNAKNTVYLQMNSLKPEDTAVYYCAAGSWWVIGGSVSYWYNYWGQGTQVTVSS
polyreactivity (PSR sort gate): high polyreactivity

QVQLVESGGGLVQAGGSLRLSCAASGIIFARYAMGWYRQAPGKERELVASINWTGGNTYADSVKGRFTISRDNAKNTVYLQMNSLKPEDTAVYYCARDFSPGSSDPKASISFDHWGQGTQVTVSS
polyreactivity (PSR sort gate): low polyreactivity

QVQLVESGGGLVQAGGSLRLSCAASGFIFQRYAMGWYRQAPGKERELVAAISWSGGITYYADSVKGRFTISRDNAKNTVYLQMHSLKPEDTAVYYCAAGLAVGDYYWGQGTQVTVSS
polyreactivity (PSR sort gate): high polyreactivity

QVQLVESGGGLVQAGGSLRLSCAASGRTFYGNAMGWYRQAPGKERELVAAINRDGGTYYADSVKGRFTISRDNAKNTVYLQMNSLKPEDTAVYYCNAVKRGIRYGYWGQGTQVTVSS
polyreactivity (PSR sort gate): high polyreactivity

QDQLVESGGGLVQAGGSLRLSCAASGRTFRYNTMGWYRQAPGKERELVASISWGGGSTYYADSVKGRFTISRDTAKNTVYLQMNSLKPEDTAVYYCAARRWGQFRFEYWGQGTQVTVSS
polyreactivity (PSR sort gate): high polyreactivity

QVQLVESGGGLVQAGGSLRLSCAASGSTFRFNAMGWYSQAPGKERELVAAITGIGGITYYADSVKGRFTISRDNAKNTVYLQMNSLKPEDTAVYYCNAVAARYSVRNGYSTHYDYWGQGTQVTVSS
polyreactivity (PSR sort gate): high polyreactivity

QVQLVESGGGLVQAGGSLRLSCAASGSIFGLYAMGWYRQAPGKERELVAGITYSGGSTYYADSVKGRFTISRDNAKNTVYLQLNSLKPEDTAVYYCNTRYWRGWYAYYYWGQGTQVTVSS
polyreactivity (PSR sort gate): high polyreactivity

QVQLVESGGGLVQAGGSLRLSCAASGLIFSGSAMGWYRQAPGKERELVAAITWSGGSTYYADSVKGRFTISRDNAKNSVYLQMNSQKPEDTAVYYCNAKFYQISRYGYWGQGTQVTVSS
polyreactivity (PSR sort gate): high polyreactivity

QVQLVESGGGLVQAGGSLRLSCAASGFIFLQNAMGWYRQAPGKERELVAVIRLSSCSTYYADSVKGRFTISRDNAKNTVYFEMNSLKPEDTAVYYCAARGYYSGQTTIGMDYWGQGTQVTVSS
polyreactivity (PSR sort gate): low polyreactivity

QVQLVDSGGGLVQAGGSLRLSCAAYGSTFGPYAMGWYRQAPGKERELVAAIRVSGGSTYYADSVKGRFTISRDNAKNTVYLQMNSLKPEDTAVYYCIRDVMTFNYDYWGQGTQVTVSS
polyreactivity (PSR sort gate): low polyreactivity

QVQLVETGGGLVQAGGSLRLSCAASGSTFHGYAMGWYRQEPGKERELVAAITSGDSTNYADSVKGRFTISRDNAKNTVYLQMNSLKPEDTAVYYCNAEGSSVLTGYWGYPPYWDTYDYWGQGTQVTVSS
polyreactivity (PSR sort gate): low polyreactivity

QVQLVESGGGLVQAGGSLRLSCAASGSIFGRYAMGLYRQAPGKERELVATISRTGGSTNYADSVKGRFTISRDNAKNTVSLQMNSLKPEDTAVYYCNAASVYANYYTYVDYYTEGFYYWGQGTQVTVSS
polyreactivity (PSR sort gate): low polyreactivity

QVQLVESGGALDQAGGSLRLSCAASGFFRYAMGSYRQAPGKERELVAAITSGGRTNYADSVKGRFTISRDNAKNTVYLQMNSLKPEDTAVYNCAADQGSRSEELDYWGQGTQVTVSS
polyreactivity (PSR sort gate): low polyreactivity

QVQLVESGGGLVQAGGSLRLSCSASGFTFYRNAMGWYRQAPGKERELVASISRSGGSTYYADSVKGRFTISRDNAKNTVYLQMNSLKPEDTAVYYCAADLCWIYPHKYYYWGQGTQVTVSS
polyreactivity (PSR sort gate): high polyreactivity

QVQLVESGGGLVQAGGSLRLSCAASGSTFYYYAMGWYRQAPGKERELVAAISVRAGITYYADSVKGRFTISRDNAKNTVYLQMNSLKPEDTAVYYCAKDHWTTSSDEGDYWGQGTQVTVSS
polyreactivity (PSR sort gate): low polyreactivity

QVQLVESGGGLVQAGGSLRLSCAASGNTFTFYAMGWYRQAPGKERELVASITGRGGSTYYADSVKGRFTISRDNAKNTVYLQMNSLKPEDTAVYYCNADLPAYGLQGDDYWGQGTQVTVSS
polyreactivity (PSR sort gate): low polyreactivity

QVLLVESGGVLVQAGGSLRLSCAASGSTFWSYAMGWYRQAPGKERELVAAISWSGDSTYYADSVKGRFTISRDNAKNTVYLQMNSLKPEDTAVYYCAADYVGGSYEYEYWGQGTQVTVSS
polyreactivity (PSR sort gate): low polyreactivity

QVQLVESGGGLVQAGGSLRLSCAASGSIFVPNDMGWYRQAPGKEREFVAAITESDGSTYNADSVKGRFTISRDNAKNTVYLQMNSLKPEDTAVYYCATDSTGVTIVHFDYWGQGTQVTVSS
polyreactivity (PSR sort gate): low polyreactivity

QVQLVESGGGLVQAGGSLRLSCAASGSIFYLNAMGWYRQAPGKERELVATISNGGSTNYADSVKGRFTISRDNAKNTVYLQMNSLKPEDTAVYYCATGVIREGDYWGQGTKVTVSS
polyreactivity (PSR sort gate): low polyreactivity

QVQLVESGGGLVQAGGSLRLSCAASGSTFDGNAMGWYRQAPGKERELVAGISYRGGSTYYADSVKGRFTISRDNAKNTVYLQMNSLKPEDTAVYYCAADDYGYWLFDYWGQGTQVTVSS
polyreactivity (PSR sort gate): low polyreactivity

QVQLVESGGGLVQAGGSLRLSCAATGRTFRLYAMGWYRQAPGKERELVAAITRGGRTNYADSVKGRFTISRDNAKNTVYLQMNSLKPEDTAVYYCAARYRLPIPGTQYEYWGQGTQVTVSS
polyreactivity (PSR sort gate): low polyreactivity

QVQLVESGVGLVQAGGSLRLSCAASGITFYGYAMGWYRQAPGKDRELVAAINWGGTGTYYADSVKGRFTISRDNAKNTVYFQMNSLKPEDTAVYYCNKAGDPIADPTAGKRQFDYWGQGTQVTVSS
polyreactivity (PSR sort gate): low polyreactivity

QVQLVESGGGLVQAGGSLRLSCAASGFTFGRYAMGWYRQAPGKERELVAAISRGGSSTYYADSVKGRFTISRDNAKNTVYLQMNSLKPEDNAVYYCNKVIIWARFDYWGQGTQVTVSS
polyreactivity (PSR sort gate): high polyreactivity

QVQLVESGGGLVQAGGSLRISWAASGFTFYTYMGWYRQAPGKERELVAAISWSGDSTYYADSVKGRFTISRDNAKNTVYLQMNSLKPEDTAVYYCIADHGGSRYDYWGQGTQVTVSS
polyreactivity (PSR sort gate): low polyreactivity

QVQLVESGGALVQAGGSLRLSCAASGRIFWHNAMGWYRQAPGKERELVAAISSRGGSTSYADSVKGLFTISRDNAKNTVYLQMNSLKPEETAVYYCNARNQAYYRVWGYRGDYWGQGTQVTVSS
polyreactivity (PSR sort gate): low polyreactivity

QLQLVESGGGLVQAGGSLRLSCAASGSIFDQNAMGWYRHAPGKERELVAAISKSGGSTYYADSVKGRFTISRDNAKNTVYLQLNSLKPEDTAVYYCAARYHYPGNWYNYWGQGTQVTVSS
polyreactivity (PSR sort gate): low polyreactivity

QVQLVESGGGLVQAGGSLRLSCAASGSTFVDNLMGWYRQSPGKERELVAAIDFSTGSTYYADSVKGRFTISRDNAKNTVYLQMNSLKPDDTAVYYCNAKYYSWDWSSFNYWGQGTQVTVSS
polyreactivity (PSR sort gate): low polyreactivity

QVQLVDSGGGLVQAGGSLRLTCAACGSIFVNNSMGWSRQATGKQRELVAAISSRSSRTFYADSVKGRFTISRDNEKNTVFLQMNSLKPEDNAVYYCAVKKRAPDGDYWGLGTQVTVSS
polyreactivity (PSR sort gate): high polyreactivity

QVQLVESGGGLVQAGGSLRLSCAASGRTFGWYAMGWYRQAPGKERELVASITQRGGRTYYADSVKGRFTISRDNAKNTVYLQMNSLIPEDTAVYYCAARGATVSSRIYGYWGQGTQVTVSS
polyreactivity (PSR sort gate): high polyreactivity

QVQLVESGGAIVQAGRSLRLSCAASGNIFESYGMGWYRQAPGKERELVATINTSSGSTYYADSVKGRFTISRDNAKYTVYLQMNRLKPEDTAVYYCAVRPKTSWYSWYYLGQGTQVTVSS
polyreactivity (PSR sort gate): low polyreactivity

QVQLVESGGGLVQAGGSLRLSCAASGFTFQYYAMGWYRQAPGKERELVAAISRSGGSTYYADSVKGRFTISRDNAKNTVYLQMNSLKPEDTAVYYCAKDRVGARRTDYDYWGQGTQVTVSS
polyreactivity (PSR sort gate): high polyreactivity

QVQLVESGAGLVQAGGSLRLSCAASGSIFWWNALGWYRQAPGKQRELVAAINWSTGRTYYADSVKGRFTISRDNAKNTVYLQMISLKPEDTAVYYCAACFVGDLGYEYWGQGTQVTVSS
polyreactivity (PSR sort gate): low polyreactivity

QVQLVESGVGLVQAGGSLRLSCAASGSIFVPNTMRWYRQAPGKERELVAAITGGGSTDYADSVKGRFTISRDNAKNTVYLQMNSLKPEDTAVYYCNKDYWRDVAQDVLDGYDYWGQGTQVTVSS
polyreactivity (PSR sort gate): low polyreactivity

QVQLVESGGGLVQAGGSLRLSCAASGRIFGGYALGWYRQAPGKERELVAAITRSGGSTYYADSVKGRFTISRDNAKNTVYVQMNSLKPEDTAVYYCAARNYYSWRYDYWGQGTQVTVSS
polyreactivity (PSR sort gate): high polyreactivity

QVQLVESGGGLVQAGGSLRLSCAASGSIFGYNAMVWYRQAPGKESELVAAIRYSGGRTYYADSVKGRFTISRDNAKNSVYLQMNSLKPEDTAVYYCAAPIKFYRYGYTRYDYWGQCTQVTVSS
polyreactivity (PSR sort gate): high polyreactivity
